This is an account of results in patent US20080070264A1, “Intracellular Signaling-Induced Ret-Independent Gdnf Receptor-Effected Morphological Changes” (JPMORGAN CHASE BANK N.A., priority 2003, published 2008).

Assay [1] has as its system MET. In words: MET phosphorylation in MDCK cells (immunoprecipitation, Western blotting). Format: cell-based, dog. The procedure:
(§1) To detect MET activation, GFRα1- and RET/GFRα1-expressing MDCK or SHEP cells were starved overnight in MEM or RPMI 1640 with 1% FCS, respectively, and in serum-free medium for 2 h prior the induction. After 15 min incubation at 37° C. with GDNF (at indicated concentrations) or with 50 ng/ml HGF, cells were lysed as described. Cleared cell lysates were incubated with anti-MET antibodies (Santa Cruz Biotechnologies, Inc.) overnight at 4° C. Immunoprecipitates were collected with protein A-SEPHAROSE (Amersham Pharmacia Biotech), washed, separated by SDS-PAGE and transferred to HYBOND-ECL membranes. Membranes were immunoblotted with anti-phospho-tyrosine antibodies (Upstate Group Inc.) or anti-MET antibodies.
Alternatively, 30 μg of protein was incubated overnight at 4° C. with 10 μl Immobilized Phospho-Tyrosine Monoclonal Antibodies (Cell Signalling, NEB). Immunocomplexes were washed and analysed as described.
(§2) For all experiments, densitometry and quantifications were performed using TINA 2.0 program (Raytest, Straubenhardt, Germany).
(§3) For the inhibition of MET, and Src activation, SHEP or GFRα1- and RET/GFRα1-expressing MDCK cells were starved as described above. 1 or […] of the inhibitor PP2 (Calbiochem) was added 30 min before induction by GDNF or HGF. DMSO (dimethyl sulfoxide) was added to the positive controls together with GDNF or HGF.
On the technique in general: In western blotting, separated proteins are transferred to a membrane and probed.

Assay [2] concerns MET. The assay is described as follows: MET phosphorylation in SHEP neuroblastoma cells. Format: cell-based, human. Particulars: GDNF 0.1 pg/ml; SHEP cells express GFRα1 but not RET; data not shown. On the procedure:
FIG. 7B: SHEP cells were grown with GDNF (10 ng/ml (lanes 2-4) or 5 pg/ml (lanes 5-7)) or HGF (10 ng/ml (lanes 8-9)) in the presence of PP2 (1 μM (lanes 3 and 6) and 10 μM (lanes 4 and 7)). To exclude a possible cytotoxic effect of the solvent, DMSO was added to the controls. […] The numbers below the lane indicate the fold of induction of MET tyrosine kinase. The results are representative of three independent experiments.
as §1, §2, §3

For assay [3], the system named is ret −/−, ret +/− and ret +/+ kidney explants. The assay is described as follows: Ureteric branching in cultured E11 urogenital block explants. On the set-up: species or system mouse. The procedure: FIG. 8A-FIG. 8D: Urogenital blocks including the Wolffian duct (wd), mesonephros (meso) and metanephros (meta) were dissected from E11 ret −/− (panels A, B), ret +/− (panel C) and ret +/+ (panel D) mouse embryos. The two urogenital blocks from the embryos were separately cultured for 4 days. One side was cultured without GDNF (panels A, C, D) and the other side with 50 ng/ml of GDNF (panel B). Urogenital block explants were fixed and immunostained with pan-cytokeratin antibodies. Scale bar: 200 μm.
FIG. 8E: The number of ureteric branches of ret −/−, ret +/− and ret +/+ kidneys with or without GDNF supplementation. Numbers in parenthesis indicate the kidney explants counted. […] Each result represents the mean±SEM (n=5).
To analyze the possible role of RET-independent, GFRα1-mediated signaling in ureteric budding and branching during nephrogenesis, the ability of exogenous GDNF to induce ureteric budding or sustain its branching in ret-deficient mice was tested. E11 ret −/− urogenital blocks including kidney rudiments were cultured for 4 days with or without 50 ng/ml of GDNF (FIG. 8). […] Thus, RET-independent signaling by GDNF has an apparent role in the ureteric branching, but may be less significant in the primary bud formation.

Assay [4] concerns MET. The assay is described as follows: MET activation in GFRα1-transfected NIH 3T3 fibroblasts. Type of assay: cell-based.

Entries after “also recorded” stand apart in the source; their conditions may differ. Bounds are passed on as bounds.

B1: GDNF: recombinant glial cell line-derived neurotrophic factor from Cephalon Inc. (baculovirus-infected insect cells) or R&D Systems, Inc. (mouse myeloma NSO) (protein, UniProt P39905 78-211, looked up)
Glial cell line-derived …: SPDKQMAVLPRRERNRQAAAANPENSRGKGRRGQRGKNRGCVLTAIHLNVTDLGLGYETKEELIFRYCSGSCDAAETTYDKILKNLSRNRRLVSDKVGQACCRPIAFDDDLSFLDDNLVYHILRKHSAKRCGCI
Regarding B1, the MET phosphorylation entry was “evoked MET phosphorylation” in the assay with MET [1] (GFRα1- and Ret/GFRα1-expressing MDCK cells); “but not in wild type MDCK cells” with MET [1] (wild type MDCK cells); “induced rapid MET phosphorylation” in the assay on MET [2]. Further, the “GDNF concentration at which MET activation reached saturation” value with MET [1] (GFRα1- and Ret/GFRα1-expressing MDCK cells, 15 min) turned out to be 0.1 pg/mL. In addition, in the assay with MET [1] (GFRα1-expressing and RET/GFRα1-expressing MDCK cells), the “time to MET activation” value is ≤ 15 min. Further, in the assay on MET [1] (GFRα1-expressing and RET/GFRα1-expressing MDCK cells, data not shown), the “duration of MET activation” value is “at least 2 hours”. Besides, in the assay on MET [1] (GFRα1-expressing and RET/GFRα1-expressing MDCK cells, printed as 4 fM (0.1 pg/ml)), the “concentration at which MET is saturated” value is 4 fM. Further, the “number of ureteric bud tips” value in assay [3] (ret +/− explants, GDNF 50 ng/ml, 4 days culture) is listed as “increased the number of ureteric bud tips”; in assay [3] (wild-type explants, GDNF 50 ng/ml, 4 days culture), “increased the number of ureteric bud tips”. In assay [3] (ret −/− explants, GDNF 50 ng/ml, 4 days culture), the “number of ureteric bud tips / ureteric branching” value is “increased but not to the level seen in wild type kidneys; also recorded: significantly increased ureteric branching”. Also, the “number of urogenital explants completely lacking a ureteric bud” value in assay [3] (ret −/− explants, with or without exogenous GDNF) was “remained the same”. Besides, in the assay on MET [4], the MET activation entry was “takes place”.
